Test results from US20100278832A1 (Chugai, published 2010).

Experiments:
[1] = target: T1, human BST2H (human); experiment: flow cytometry on BST2H-CHO cells
T1 construct: Expressed from pcDNA3.1-hBST2H on CHO-K1 cells (BST2H-CHO line); Splicing variant H, 158 residues; also called type H BST2; BST2H-CHO cells
T1 chain: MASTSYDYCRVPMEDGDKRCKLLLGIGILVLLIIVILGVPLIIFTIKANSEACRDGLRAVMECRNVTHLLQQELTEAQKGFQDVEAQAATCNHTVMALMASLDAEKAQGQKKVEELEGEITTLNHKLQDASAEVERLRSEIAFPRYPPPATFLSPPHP

[2] = target: T2, His-tagged recombinant human BST2 protein K(47)-V(146) (human, UniProt Q10589 47-146); experiment: Western blot of His-tagged BST2 fragment
T2 construct: Expressed in E. coli BL21(DE3); denatured and reduced for Western blotting; also called lane 8: K(47)--V(146); not shown: N-terminal His tag supplied by vector pET32
T2 sequence: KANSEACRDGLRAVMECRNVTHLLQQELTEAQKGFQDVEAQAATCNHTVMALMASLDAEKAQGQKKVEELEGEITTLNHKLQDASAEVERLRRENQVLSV
Experimental: (§1) The His-tagged human BST2 proteins (synthesized as described in A) were each dissolved in sample buffer, and heated at 70° C. for ten minutes. The dissolved proteins were fractionated on a 4-20% SDS-PAGE gradient gel (Invitrogen) and transferred onto PVDF membrane (Millipore). The membrane was blocked with BSA and incubated with 1 μg/ml antibody 4LD or 2000× diluted anti-His tag antibody (Novagen). After reaction with an HRP-labeled anti-mouse IgG antibody (Jackson), ECL Detection Reagent (GE Healthcare) was reacted for chemical luminescence, and the His-tagged human BST2 proteins were detected using LAS-1000 from Fuji Film.

[3] = target: T3, His-tagged recombinant human BST2 protein K(47)-S(145) (human, UniProt Q10589 47-145); experiment: Western blot of His-tagged BST2 fragment
T3 construct: Expressed in E. coli BL21(DE3); denatured and reduced for Western blotting; also called lane 9: K(47)-S(145); not shown: N-terminal His tag supplied by vector pET32
T3 sequence: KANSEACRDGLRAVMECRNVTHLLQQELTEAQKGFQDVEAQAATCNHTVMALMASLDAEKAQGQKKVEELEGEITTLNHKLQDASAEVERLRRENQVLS
Experimental: as §1

[4] = target: T4, His-tagged recombinant human BST2 protein V(134)-Q(180) (human, UniProt Q10589 134-180, not fully specified); experiment: Western blot of His-tagged BST2 fragment
T4 construct: Expressed in E. coli BL21(DE3); denatured and reduced for Western blotting; also called lane 7: V(134)----Q(180); not shown: N-terminal His tag supplied by vector pET32
T4 chain: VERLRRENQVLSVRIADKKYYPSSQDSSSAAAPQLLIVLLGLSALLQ
Experimental: as §1

[5] = target: T5, His-tagged recombinant human BST2 protein E(135)-Q(180) (human, UniProt Q10589 135-180, not fully specified); experiment: Western blot of His-tagged BST2 fragment
T5 construct: Expressed in E. coli BL21(DE3); denatured and reduced for Western blotting; also called lane 8: E(135)-----Q(180); not shown: N-terminal His tag supplied by vector pET32
T5 chain: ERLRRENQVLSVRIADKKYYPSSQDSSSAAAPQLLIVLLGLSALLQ
Experimental: as §1

[6] = target: T6, His-tagged recombinant human BST2 protein R(136)-Q(180) (human, UniProt Q10589 136-180, not fully specified); experiment: Western blot of His-tagged BST2 fragment
T6 construct: Expressed in E. coli BL21(DE3); denatured and reduced for Western blotting; also called lane 9: R(136)------Q(180); not shown: N-terminal His tag supplied by vector pET32
T6 chain: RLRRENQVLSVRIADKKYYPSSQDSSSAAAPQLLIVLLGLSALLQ
Experimental: as §1

[7] = target: T7, His-tagged recombinant human BST2 protein L(137)-Q(180) (human, UniProt Q10589 137-180, not fully specified); experiment: Western blot of His-tagged BST2 fragment
T7 construct: Expressed in E. coli BL21(DE3); denatured and reduced for Western blotting; also called lane 10: L(137)-------Q(180); not shown: N-terminal His tag supplied by vector pET32
T7 chain: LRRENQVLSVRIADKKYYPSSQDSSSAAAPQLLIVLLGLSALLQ
Experimental: as §1

[8] = target: T8, His-tagged recombinant human BST2 protein K(47)-P(155) (human, UniProt Q10589 47-155); experiment: Western blot of His-tagged BST2 fragment, 1 µg/ml antibody
T8 construct: Expressed in E. coli BL21(DE3); denatured and reduced for Western blotting; also called lane 3: K(47)----------P(155); not shown: N-terminal His tag supplied by vector pET32
T8 sequence: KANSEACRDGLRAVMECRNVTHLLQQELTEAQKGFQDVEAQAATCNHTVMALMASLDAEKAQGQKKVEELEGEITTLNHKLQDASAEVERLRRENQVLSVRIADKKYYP
Experimental: as §1

[9] = target: T9, His-tagged recombinant human BST2 protein K(47)-D(150) (human, UniProt Q10589 47-150); experiment: as above
T9 construct: Expressed in E. coli BL21(DE3); denatured and reduced for Western blotting; also called lane 4: K(47)------D(150); not shown: N-terminal His tag supplied by vector pET32
T9 sequence: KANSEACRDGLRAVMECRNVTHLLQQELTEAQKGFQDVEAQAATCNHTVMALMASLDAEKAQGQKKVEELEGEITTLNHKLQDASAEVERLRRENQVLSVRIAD
Experimental: as §1

[10] = target: T10, His-tagged recombinant human BST2 protein K(47)-A(149) (human, UniProt Q10589 47-149); experiment: as above
T10 construct: Expressed in E. coli BL21(DE3); denatured and reduced for Western blotting; also called lane 5: K(47)-----A(149); not shown: N-terminal His tag supplied by vector pET32
T10 sequence: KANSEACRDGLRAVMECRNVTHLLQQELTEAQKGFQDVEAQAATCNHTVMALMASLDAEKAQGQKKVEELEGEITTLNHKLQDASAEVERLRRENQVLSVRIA
Experimental: as §1

[11] = target: T11, His-tagged recombinant human BST2 protein K(47)-I(148) (human, UniProt Q10589 47-148); experiment: as above
T11 construct: Expressed in E. coli BL21(DE3); denatured and reduced for Western blotting; also called lane 6: K(47)----I(148); not shown: N-terminal His tag supplied by vector pET32
T11 sequence: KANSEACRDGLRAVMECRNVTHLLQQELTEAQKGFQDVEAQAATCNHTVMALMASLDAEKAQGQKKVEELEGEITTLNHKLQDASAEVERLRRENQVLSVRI
Experimental: as §1

[12] = target: T12, His-tagged recombinant human BST2 protein K(47)-R(147) (human, UniProt Q10589 47-147); experiment: as above
T12 construct: Expressed in E. coli BL21(DE3); denatured and reduced for Western blotting; not shown: N-terminal His tag supplied by vector pET32
T12 sequence: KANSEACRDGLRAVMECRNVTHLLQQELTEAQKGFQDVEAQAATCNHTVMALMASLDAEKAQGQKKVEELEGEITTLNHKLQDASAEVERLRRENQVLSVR
Experimental: as §1

[13] = target: T13, His-tagged recombinant human BST2 protein S(131)-Q(180) (human, UniProt Q10589 131-180, not fully specified); experiment: as above
T13 construct: Expressed in E. coli BL21(DE3); denatured and reduced for Western blotting; also called lane 4: S(131)-Q(180); not shown: N-terminal His tag supplied by vector pET32
T13 chain: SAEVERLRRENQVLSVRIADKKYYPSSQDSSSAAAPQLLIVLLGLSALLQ
Experimental: as §1

[14] = target: T14, His-tagged recombinant human BST2 protein A(132)-Q(180) (human, UniProt Q10589 132-180, not fully specified); experiment: as above
T14 construct: Expressed in E. coli BL21(DE3); denatured and reduced for Western blotting; also called lane 5: A(132)--Q(180); not shown: N-terminal His tag supplied by vector pET32
T14 chain: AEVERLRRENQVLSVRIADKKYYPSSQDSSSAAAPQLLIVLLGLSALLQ
Experimental: as §1

[15] = target: T15, His-tagged recombinant human BST2 protein E(133)-Q(180) (human, UniProt Q10589 133-180, not fully specified); experiment: as above
T15 construct: Expressed in E. coli BL21(DE3); denatured and reduced for Western blotting; not shown: N-terminal His tag supplied by vector pET32
T15 chain: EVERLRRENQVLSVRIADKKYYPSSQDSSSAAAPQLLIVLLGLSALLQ
Experimental: as §1

[16] = target: T16, human BST2D (human, UniProt Q10589 1-161); experiment: flow cytometry of hybridoma supernatant on 293T cells expressing human BST2D
T16 construct: Transmembrane glycoprotein, splicing variant D, 180 residues; also called type D BST2; BST2D-CHO cells
Experimental: The hybridoma culture supernatants were analyzed by flow cytometry (FCM). The cells prepared as described in A of Example 1 were suspended in 0.5% BSA/2 mM EDTA/PBS, and collected into centrifuge tubes at 1×10⁵ cells/sample. 40 μl of each hybridoma culture supernatant was added, and the tubes were incubated at room temperature for 30 minutes. Then, a 1-ml aliquot of 0.5% BSA/2 mM EDTA/PBS was added to each tube, the tubes were centrifuged for three minutes at 1200 rpm and 4° C., and the supernatants were discarded; this washing process was repeated twice. A 40-μl aliquot of 100× diluted FITC-labeled goat anti-mouse IgG antibody (Beckman coulter; IM0819) was added to each tube after washing. The tubes were incubated at room temperature for 30 minutes. Following two rounds of washing, the hybridoma culture supernatants were analyzed with flow cytometer FC500 (Beckman coulter) to assess whether the antibody in the supernatants could specifically recognize human BST2D. […] The selected hybridomas were cloned by the limiting dilution method. The resulting hybridomas producing mouse anti-human BST2 antibody were named #3LD, #4LD, #7LD, #9LD, and #19LD.

[17] = target: BST2 on human myeloma-derived RPMI8226 cells (human) (UniProt Q10589); experiment: flow cytometry on RPMI8226 cells, Kd calculated with Prism 4 from percentage of staining at 0.01-10 µg/ml

B1: mouse anti-human BST2 monoclonal antibody #4LD (antibody, V domains shown)
VH: DVQLQESGPGLVKPSQSLSLTCSVTGYSITSGYYWNWIRQFPGNKLEWMGYISYDGSNNYNPSLKNRISITRDTSKNQFFLKLNSVTTEDTATYYCAILGRGYWGQGTTLTVSS
VL: DIVLTQSPASLAVSLGQRATISCRASQSVSTSSYSYMHWYQQKPGQPPKLLIKYASNLESGVPARFSGSGSGTDFTLNIHPVEEEDTATYYCQHSWEIPYTFGGGTKLEIK
notes: Purified from hybridoma #4LD (FERM BP-10964); also called mouse antibody #4LD; anti-human BST2(D+/H-) antibody
no binding (tested: 1 µg/ml): binding result [2] | binding result [3] | binding result [4] | binding result [5] | binding result [6] | binding result [7]
no binding: binding result [1]
binds: binding result [8] | binding result [9] | binding result [10] | binding result [11] | binding result [12] | binding result [13] | binding result [14] | binding result [15] | binding result [16]
0.1 nM: Kd [17]
